In patent US20060160117:

T1: MTase(R124) (UniProt P10484)
T1 sequence 1: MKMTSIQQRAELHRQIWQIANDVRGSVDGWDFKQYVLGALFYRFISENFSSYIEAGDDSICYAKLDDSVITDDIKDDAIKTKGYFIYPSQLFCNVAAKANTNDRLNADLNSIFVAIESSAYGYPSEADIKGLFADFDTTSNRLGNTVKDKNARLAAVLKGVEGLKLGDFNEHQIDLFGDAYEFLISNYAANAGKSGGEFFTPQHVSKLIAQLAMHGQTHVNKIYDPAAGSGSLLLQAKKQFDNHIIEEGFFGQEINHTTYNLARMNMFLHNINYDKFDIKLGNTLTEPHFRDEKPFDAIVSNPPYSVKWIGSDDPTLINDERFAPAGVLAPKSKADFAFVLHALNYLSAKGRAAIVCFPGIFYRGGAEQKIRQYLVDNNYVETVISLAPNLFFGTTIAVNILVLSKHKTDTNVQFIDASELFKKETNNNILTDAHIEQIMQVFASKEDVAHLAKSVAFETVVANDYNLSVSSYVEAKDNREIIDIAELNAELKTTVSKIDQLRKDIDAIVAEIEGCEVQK
T1 sequence 2: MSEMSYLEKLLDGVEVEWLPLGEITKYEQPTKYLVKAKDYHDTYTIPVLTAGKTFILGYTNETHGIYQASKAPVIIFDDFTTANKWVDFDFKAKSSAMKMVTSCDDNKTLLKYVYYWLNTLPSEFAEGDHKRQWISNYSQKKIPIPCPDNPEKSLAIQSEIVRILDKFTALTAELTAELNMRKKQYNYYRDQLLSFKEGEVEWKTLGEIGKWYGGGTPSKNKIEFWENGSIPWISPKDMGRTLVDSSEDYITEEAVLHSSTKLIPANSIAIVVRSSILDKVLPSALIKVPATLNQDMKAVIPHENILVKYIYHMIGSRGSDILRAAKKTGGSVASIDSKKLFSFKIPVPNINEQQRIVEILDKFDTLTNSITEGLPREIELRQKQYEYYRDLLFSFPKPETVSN

T2: MTase(R124), P10484
T2 chain 1: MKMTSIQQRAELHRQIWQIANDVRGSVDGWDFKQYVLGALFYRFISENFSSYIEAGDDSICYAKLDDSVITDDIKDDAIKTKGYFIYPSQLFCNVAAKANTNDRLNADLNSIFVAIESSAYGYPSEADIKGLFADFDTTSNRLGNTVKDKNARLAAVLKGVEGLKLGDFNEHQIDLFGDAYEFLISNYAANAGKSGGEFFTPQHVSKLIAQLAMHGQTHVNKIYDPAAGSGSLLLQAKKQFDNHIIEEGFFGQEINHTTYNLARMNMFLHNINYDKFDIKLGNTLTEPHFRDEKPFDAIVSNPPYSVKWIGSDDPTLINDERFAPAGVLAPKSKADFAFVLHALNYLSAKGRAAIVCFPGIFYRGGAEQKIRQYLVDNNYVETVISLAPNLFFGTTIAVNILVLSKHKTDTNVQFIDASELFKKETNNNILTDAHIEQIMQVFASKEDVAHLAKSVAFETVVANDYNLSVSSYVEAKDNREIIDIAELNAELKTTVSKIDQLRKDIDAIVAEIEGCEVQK
T2 chain 2: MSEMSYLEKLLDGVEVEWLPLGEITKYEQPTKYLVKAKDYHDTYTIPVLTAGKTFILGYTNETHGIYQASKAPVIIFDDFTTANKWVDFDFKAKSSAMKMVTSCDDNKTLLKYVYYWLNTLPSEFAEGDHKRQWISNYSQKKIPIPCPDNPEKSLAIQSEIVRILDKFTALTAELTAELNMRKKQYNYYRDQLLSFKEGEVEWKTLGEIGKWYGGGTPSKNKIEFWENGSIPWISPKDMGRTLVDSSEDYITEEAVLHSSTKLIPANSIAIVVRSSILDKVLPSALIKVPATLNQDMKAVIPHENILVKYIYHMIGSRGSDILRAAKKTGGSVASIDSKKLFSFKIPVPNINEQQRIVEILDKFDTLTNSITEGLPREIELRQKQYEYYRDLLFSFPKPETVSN


Assays:
[1] = target: T1, MTase(R124)
[2] = target: T2, MTase(R124), P10484

Row | Molecule | DNA cleavage by the hybrid endonuclease [1] | cleavage of pCFD30 plasmid DNA (agarose gel) [2]
1 | HsdR(prrI) | this hybrid enzyme can only cleave DNA in the presence of extremely high concentrations of HsdR(prrI) | –
2 | HsdR(R124) (protein) MTHQTHTIAESNNFIVLDKYIKAEPTGDSYQSESDLERELIQDLRNQGYEFISVKSQSAMLANVREQLQNLNGVVFNDSEWRRFTEQYLDNPSDGILDKTRKIHIDYICDFIFDDERLENIYLIDKKNLMRNKVQIIQQFEQAGSHANRYDVTILVNGLPLVQIELKKRGVAIREAFNQIHRYSKESFNSENSLFKYLQLFVISNGTDTRYFANTTKRDKNSFDFTMNWAKSDNTLIKDLKDFTATCFQKHTLLNVLVNYSVFDSSQTLLVMRPYQIAATERILWKIKSSFTAKNWSKPESGGYIWHTTGSGKTLTSFKAARLATELDFIDKVFFVVDRKDLDYQTMKEYQRFSPDSVNGSENTAGLKRNLDKDDNKIIVTTIQKLNNLMKAESDLPVYNQQVVFIFDECHRSQFGEAQKNLKKKFKRYYQFGFTGTPIFPENALGSETTASVFGRELHSYVITDAIRDEKVLKFKVDYNDVRPQFKSLETETDEKKLSAAENQQAFLHPMRIQEITQYILNNFRQKTHRTFPGSKGFNAMLAVSSVDAAKAYYATFKRLQEEAANKSATYKPLRIATIFSFAANEEQNAIGEISDETFDTSAMDSSAKEFLDAAIREYNSHFKTNFSTDSNGFQNYYRDLAQRVKNQDIDLLIVVGMFLTGFDAPTLNTLFVDKNLRYHGLMQAFSRTNRIYDATKTFGNIVTFRDLERSTIDAITLFGDKNTKNVVLEKSYTEYMEGFTDAATGEAKRGFMTVVSELEQRFPDPTSIESEKEKKDFVKLFGEYLRAENILQNYDEFATLKALQQIDLSDPVAVEKFKAEHYVDDEKFAELQTIRLPADRKIQDYRSAYNDIRDWQRREKEAEKKEKSTTDWDDVVFEVDLLKSQEINLDYILGLIFEHNRQNKGKGEMIEEVKRLIRSSLGNRAKEGLVVDFIQQTNLDDLPDKASIIDAFFTFAQREQQREAEALIKEENLNEDAAKRYIRTSLKREYATENGTELNETLPKLSPLNPQYKTKKQAVFQKIVSFIEKFKGVGGKI | – | The R2-complex was found to cleave the plasmid DNA, as expected. No cleavage was observed for the R1-complex
